In patent US20220152103A1 (LEUCID BIO, published 2022):

Target: T1, human HER2 on tumor cells (MDA-MB-468-HER2++ cells transduced with human HER2; T47D cells) (human, UniProt P04626 23-1255)
T1 construct: whole, on cells; also called ErbB2
Assay: flow cytometry sorting of MDA-MB-468-HER2++ cells

B1: ICR12 rat anti-human HER2 antibody (antibody, V domains shown)
VH: EVQLQESGPGLVKPSQSLSLTCSVTGYSITTDYWGWIRKFPGNKMEWMGYISYSGSTGYNPSLKSRISITRDTSKSQFFLQLNSVTTEDTATYYCARYSSLDYWGRGVMVAVSS
VL: DVVMTQTPPSLSVAIGQSVSISCKSSQSLVYSDGKTYLHWLLQSPGRSPKRLIYQVSNLGSGVPDRFSGTGSQKDFTLKISRVEAEDLGVYYCAQTTHFPLTFGSGTKLEIK
notes: VH and VL stand within it
binding result: binds
